# Non-standard residues stand in square brackets, D forms with d. No end group written: not given here. pS = N[C@@H](COP(=O)(O)O)C(=O)O
# Molecular target: T1, HLA-A*02:01 (human)
# T1 construct: monomers captured on streptavidin plates; also called MHC class I
# Experiment: UV peptide exchange ELISA
# Procedure, shortened: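 Peptide-MHC complexes formed by UV-triggered exchange of a cleavable peptide for the test peptide, with stabilised complexes indicating binding. Exchange products diluted 100 fold onto streptavidin-coated wells, 1h at 37° C.; HRP anti-β2m (2 μg/ml), TMB, absorbance at 450 nm gives exchange yield.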
row,Binder,peptide exchange yield
1,VLLSIYPRV,50 to 75%
2,ILANDGVLLAA,50 to 75%
3,LLMPSSEDLLL,50 to 75%
4,LLMENAERV,20 to 50%
5,WLLPYNGVTV,50 to 75%
6,VIADGGIQNV,20 to 50%
7,YLLQEPPRTV,20 to 50%
8,YLEELPEKLKL,50 to 75%
9,ILVANAIVGV,50 to 75%
10,YVLEGLKSV,50 to 75%
11,YLQLTQSEL,50 to 75%
12,ILTEENIHL,50 to 75%
13,SAFPFPVTV,50 to 75%
14,VMIAGKVAVV,50 to 75%
15,LLLTTIPQI,50 to 75%
16,ALWETEVYI,50 to 75%
17,FLTDLEDLTL,50 to 75%
18,FLDPGGPMMKL,50 to 75%
19,VMFEDGVLMRL,50 to 75%
20,SILDRDDIFV,50 to 75%
21,SLLPLSHLV,50 to 75%
22,ALAELYEDEV,50 to 75%
23,TLDITPHTV,50 to 75%
24,ALLDQTKTLAESAL,50 to 75%
25,RLL[pS]AAENFL [RLLJAAENFL],50 to 75%

row,Binder,peptide exchange yield
1,FLYDEIEAEVNL,50 to 75%
2,YLPAVFEEV,50 to 75%
3,KLVDRTWTL (probably a misprint of W as VV),50 to 75%
4,GLLPTPITQQASL,50 to 75%
5,SLLSVSHAL,50 to 75%
6,RLYSGISGLEL,50 to 75%
7,ALAEVAAMENV,50 to 75%
8,VMNDRLYAI,50 to 75%
9,KLYPQLPAEI,50 to 75%
10,GLLDLPFRVGV,≥ 75%
11,YLLNDASLISV,50 to 75%
12,LLADLLHNV,50 to 75%
13,VLSSLEINI,20 to 50%
14,TLCDVILMV,50 to 75%
15,ILLNNSGQIKL,≥ 75%
16,KLYDDMIRL,50 to 75%
17,ILLSVPLLVV,20 to 50%
18,SLIEKLWQT,20 to 50%
19,FLIEPEHVNTV,20 to 50%
20,KLYEAVPQL,50 to 75%
21,YLLEQIKLIEV,≥ 75%
22,KLLEGQVIQL,50 to 75%
23,GLLENIPRV,50 to 75%
24,ALAAPDIVPAL,50 to 75%
25,ALADLIEKELSV,50 to 75%

row,Binder,peptide exchange yield
1,ALQETPTSV,20 to 50%
2,IMLKGDNITL,50 to 75%
3,SLLPLDDIVRV,50 to 75%
4,ALWDIETGQQTTT,50 to 75%
5,NLMEMVAQL,20 to 50%
6,RVWDISTVSSV,50 to 75%
7,KLYESLLPFA,50 to 75%
8,TVTNAVVTV,50 to 75%
9,TLYDIAHTPGV,≥ 75%
10,ALANQIPTV,20 to 50%
11,SLLNQDLHWSL,≥ 75%
12,SMAELDIKL,50 to 75%
13,AMLENASDIKL,50 to 75%
14,LLWDVPAPSL,50 to 75%
15,SLWQDIPDV,50 to 75%
16,ALWENPESGEL,20 to 50%
17,ILDPISSGFLL,20 to 50%
18,FLFPHSVLV,50 to 75%
19,YLISQVEGHQV,50 to 75%
20,KLKPGDLVGV,50 to 75%
21,ALWDLAADKQTL,≥ 75%
22,VTVPPGPSL,20 to 50%
23,GLPRFGIEMV,50 to 75%

# Source: patent publication US20170037110A1 (IMMATICS BIOTECHNOLOGIES, published 2017)
